Positions of bridges follow the written chain, without caps; N, C: chain ends. Non-standard residues stand in square brackets, D forms with d. Pro(trans-4-guanidino) = N=C(N)N[C@H]1CN[C@H](C(=O)O)C1; Lys(Me2) = CN(C)CCCC[C@H](N)C(=O)O; Hyp = O=C(O)[C@@H]1C[C@@H](O)CN1; Orn = NCCC[C@H](N)C(=O)O; Thz = O=C(O)[C@@H]1CSCN1; Dab = NCC[C@H](N)C(=O)O
B1: Chem. 26 (peptide)
peptide: cyclo(C[Hyp][dF]RWC[Hyp][dF]RW)
modifications: bridge 1-6 via methylene bridge (S-CH2-S)
notes: also called c[c[Cys-Hyp-D-Phe-Arg-Trp-Cys]-Hyp-D-Phe-Arg-Trp]; Note: methylene bridge
B2: Chem. 22 (peptide)
peptide: CAHFXWCAHFXW
modifications: D-Phe 4, 10; HArg 5, 11; disulphide Cys1-Cys7; head-to-tail amide Cys1-Trp12
notes: also called c[c[Cys-Ala-His-D-Phe-HArg-Trp-Cys]-Ala-His-D-Phe-HArg-Trp]
B3: Chem. 107 (peptide)
peptide: cyclo(C[Thz]H[dF]HWCADEAW)
modifications: disulfide 1-7
SMILES: C[C@@H]1NC(=O)[C@H](CCC(=O)O)NC(=O)[C@H](CC(=O)O)NC(=O)[C@H](C)NC(=O)[C@@H]2CSSC[C@H](NC(=O)[C@H](Cc3c[nH]c4ccccc34)NC1=O)C(=O)N1CSC[C@H]1C(=O)N[C@@H](Cc1c[nH]cn1)C(=O)N[C@H](Cc1ccccc1)C(=O)N[C@@H](Cc1c[nH]cn1)C(=O)N[C@@H](Cc1c[nH]c3ccccc13)C(=O)N2
notes: also called c[c[Cys-THAZ-His-D-Phe-His-Trp-Cys]-Ala-Asp-Glu-Ala-Trp]
B4: Chem. 108 (peptide)
peptide: cyclo(C[Thz]H[dF]HWCAEDAW)
modifications: disulfide 1-7
SMILES: C[C@@H]1NC(=O)[C@H](CC(=O)O)NC(=O)[C@H](CCC(=O)O)NC(=O)[C@H](C)NC(=O)[C@@H]2CSSC[C@H](NC(=O)[C@H](Cc3c[nH]c4ccccc34)NC1=O)C(=O)N1CSC[C@H]1C(=O)N[C@@H](Cc1c[nH]cn1)C(=O)N[C@H](Cc1ccccc1)C(=O)N[C@@H](Cc1c[nH]cn1)C(=O)N[C@@H](Cc1c[nH]c3ccccc13)C(=O)N2
notes: also called c[c[Cys-THAZ-His-D-Phe-His-Trp-Cys]-Ala-Glu-Asp-Ala-Trp]
B5: Chem. 17 (peptide)
peptide: cyclo(CAH[dF][Dab]WCAH[dF][Dab]W)
modifications: disulfide 1-7
SMILES: C[C@@H]1NC(=O)[C@@H]2CSSC[C@H](NC(=O)[C@H](Cc3c[nH]c4ccccc34)NC(=O)[C@H](CCN)NC(=O)[C@@H](Cc3ccccc3)NC(=O)[C@H](Cc3c[nH]cn3)NC1=O)C(=O)N[C@@H](C)C(=O)N[C@@H](Cc1c[nH]cn1)C(=O)N[C@H](Cc1ccccc1)C(=O)N[C@@H](CCN)C(=O)N[C@@H](Cc1c[nH]c3ccccc13)C(=O)N2
notes: also called c[c[Cys-Ala-His-D-Phe-Dab-Trp-Cys]-Ala-His-D-Phe-Dab-Trp]
B6: Chem. 20 (peptide)
peptide: CXHFRWCXHFRW
modifications: ACBC 2, 8; D-Phe 4, 10; disulphide Cys1-Cys7; head-to-tail amide Cys1-Trp12
notes: also called c[c[Cys-ACBC-His-D-Phe-Arg-Trp-Cys]-ACBC-His-D-Phe-Arg-Trp]
B7: Chem. 24 (peptide)
peptide: cyclo(CAH[dF]HWCAH[dF]HW)
modifications: disulfide 1-7
SMILES: C[C@@H]1NC(=O)[C@@H]2CSSC[C@H](NC(=O)[C@H](Cc3c[nH]c4ccccc34)NC(=O)[C@H](Cc3c[nH]cn3)NC(=O)[C@@H](Cc3ccccc3)NC(=O)[C@H](Cc3c[nH]cn3)NC1=O)C(=O)N[C@@H](C)C(=O)N[C@@H](Cc1c[nH]cn1)C(=O)N[C@H](Cc1ccccc1)C(=O)N[C@@H](Cc1c[nH]cn1)C(=O)N[C@@H](Cc1c[nH]c3ccccc13)C(=O)N2
notes: also called c[c[Cys-Ala-His-D-Phe-His-Trp-Cys]-Ala-His-D-Phe-His-Trp]
B8: Chem. 3 (peptide)
peptide: XAHFRWXAHFRW
modifications: HCys 1, 7; D-Phe 4, 10; disulphide HCys1-HCys7; head-to-tail amide HCys1-Trp12
notes: also called c[c[HCys-Ala-His-D-Phe-Arg-Trp-HCys]-Ala-His-D-Phe-Arg-Trp]
B9: Chem. 15 (peptide)
peptide: cyclo(CAH[dF]KWCAH[dF]KW)
modifications: disulfide 1-7
SMILES: C[C@@H]1NC(=O)[C@@H]2CSSC[C@H](NC(=O)[C@H](Cc3c[nH]c4ccccc34)NC(=O)[C@H](CCCCN)NC(=O)[C@@H](Cc3ccccc3)NC(=O)[C@H](Cc3c[nH]cn3)NC1=O)C(=O)N[C@@H](C)C(=O)N[C@@H](Cc1c[nH]cn1)C(=O)N[C@H](Cc1ccccc1)C(=O)N[C@@H](CCCCN)C(=O)N[C@@H](Cc1c[nH]c3ccccc13)C(=O)N2
notes: also called c[c[Cys-Ala-His-D-Phe-Lys-Trp-Cys]-Ala-His-D-Phe-Lys-Trp]
B10: Chem. 14 (peptide)
peptide: cyclo(CA[Hyp][dF]RWCA[Hyp][dF]RW)
modifications: disulfide 1-7
SMILES: C[C@@H]1NC(=O)[C@@H]2CSSC[C@H](NC(=O)[C@H](Cc3c[nH]c4ccccc34)NC(=O)[C@H](CCCNC(=N)N)NC(=O)[C@@H](Cc3ccccc3)NC(=O)[C@@H]3C[C@@H](O)CN3C1=O)C(=O)N[C@@H](C)C(=O)N1C[C@H](O)C[C@H]1C(=O)N[C@H](Cc1ccccc1)C(=O)N[C@@H](CCCNC(=N)N)C(=O)N[C@@H](Cc1c[nH]c3ccccc13)C(=O)N2
notes: also called c[c[Cys-Ala-Hyp-D-Phe-Arg-Trp-Cys]-Ala-Hyp-D-Phe-Arg-Trp]
B11: Chem. 16 (peptide)
peptide: cyclo(CAH[dF][Orn]WCAH[dF][Orn]W)
modifications: disulfide 1-7
SMILES: C[C@@H]1NC(=O)[C@@H]2CSSC[C@H](NC(=O)[C@H](Cc3c[nH]c4ccccc34)NC(=O)[C@H](CCCN)NC(=O)[C@@H](Cc3ccccc3)NC(=O)[C@H](Cc3c[nH]cn3)NC1=O)C(=O)N[C@@H](C)C(=O)N[C@@H](Cc1c[nH]cn1)C(=O)N[C@H](Cc1ccccc1)C(=O)N[C@@H](CCCN)C(=O)N[C@@H](Cc1c[nH]c3ccccc13)C(=O)N2
notes: also called c[c[Cys-Ala-His-D-Phe-Orn-Trp-Cys]-Ala-His-D-Phe-Orn-Trp]
B12: Chem. 23 (peptide)
peptide: cyclo(CA[Hyp][dF]RWCA[Hyp][dF]RW)
modifications: bridge 1-7 via methylene bridge (S-CH2-S)
notes: also called c[c[Cys-Ala-Hyp-D-Phe-Arg-Trp-Cys]-Ala-Hyp-D-Phe-Arg-Trp]; Note: methylene bridge
B13: Chem. 2 (peptide)
peptide: cyclo(CGH[dF]RWCGH[dF]RW)
modifications: disulfide 1-7
SMILES: N=C(N)NCCC[C@@H]1NC(=O)[C@@H](Cc2ccccc2)NC(=O)[C@H](Cc2c[nH]cn2)NC(=O)CNC(=O)[C@@H]2CSSC[C@H](NC(=O)[C@H](Cc3c[nH]c4ccccc34)NC1=O)C(=O)NCC(=O)N[C@@H](Cc1c[nH]cn1)C(=O)N[C@H](Cc1ccccc1)C(=O)N[C@@H](CCCNC(=N)N)C(=O)N[C@@H](Cc1c[nH]c3ccccc13)C(=O)N2
notes: also called c[c[Cys-Gly-His-D-Phe-Arg-Trp-Cys]-Gly-His-D-Phe-Arg-Trp]
B14: Chem. 18 (peptide)
peptide: cyclo(CAH[dF][Lys(Me2)]WCAH[dF][Lys(Me2)]W)
modifications: disulfide 1-7
SMILES: C[C@@H]1NC(=O)[C@@H]2CSSC[C@H](NC(=O)[C@H](Cc3c[nH]c4ccccc34)NC(=O)[C@H](CCCCN(C)C)NC(=O)[C@@H](Cc3ccccc3)NC(=O)[C@H](Cc3c[nH]cn3)NC1=O)C(=O)N[C@@H](C)C(=O)N[C@@H](Cc1c[nH]cn1)C(=O)N[C@H](Cc1ccccc1)C(=O)N[C@@H](CCCCN(C)C)C(=O)N[C@@H](Cc1c[nH]c3ccccc13)C(=O)N2
notes: also called c[c[Cys-Ala-His-D-Phe-Lys(Me)2-Trp-Cys]-Ala-His-D-Phe-Lys(Me)2-Trp]
B15: Chem. 28 (peptide)
peptide: cyclo(CAH[dF][Pro(trans-4-guanidino)]WCAH[dF][Pro(trans-4-guanidino)]W)
modifications: disulfide 1-7
SMILES: C[C@@H]1NC(=O)[C@@H]2CSSC[C@H](NC(=O)[C@H](Cc3c[nH]c4ccccc34)NC(=O)[C@@H]3C[C@@H](NC(=N)N)CN3C(=O)[C@@H](Cc3ccccc3)NC(=O)[C@H](Cc3c[nH]cn3)NC1=O)C(=O)N[C@@H](C)C(=O)N[C@@H](Cc1c[nH]cn1)C(=O)N[C@H](Cc1ccccc1)C(=O)N1C[C@H](NC(=N)N)C[C@H]1C(=O)N[C@@H](Cc1c[nH]c3ccccc13)C(=O)N2
notes: also called c[c[Cys-Ala-His-D-Phe-4trans-GuaPro-Trp-Cys]-Ala-His-D-Phe-4trans-GuaPro-Trp]
B16: Chem. 25 (peptide)
peptide: CXHFRWCXHFRW
modifications: βAla 2, 8; D-Phe 4, 10; disulphide Cys1-Cys7; head-to-tail amide Cys1-Trp12
notes: also called c[c[Cys-βAla-His-D-Phe-Arg-Trp-Cys]-βAla-His-D-Phe-Arg-Trp]
B17: Chem. 27 (peptide)
peptide: cyclo(C[Hyp][dF]RWC[Hyp][dF]RW)
modifications: disulfide 1-6
SMILES: N=C(N)NCCC[C@@H]1NC(=O)[C@@H](Cc2ccccc2)NC(=O)[C@@H]2C[C@@H](O)CN2C(=O)[C@@H]2CSSC[C@H](NC(=O)[C@H](Cc3c[nH]c4ccccc34)NC1=O)C(=O)N1C[C@H](O)C[C@H]1C(=O)N[C@H](Cc1ccccc1)C(=O)N[C@@H](CCCNC(=N)N)C(=O)N[C@@H](Cc1c[nH]c3ccccc13)C(=O)N2
notes: also called c[c[Cys-Hyp-D-Phe-Arg-Trp-Cys]-Hyp-D-Phe-Arg-Trp]
B18: Chem. 19 (peptide)
peptide: CAHFXWCAHFXW
modifications: D-Phe 4, 10; Cit 5, 11; disulphide Cys1-Cys7; head-to-tail amide Cys1-Trp12
notes: also called c[c[Cys-Ala-His-D-Phe-Cit-Trp-Cys]-Ala-His-D-Phe-Cit-Trp]

Key:
[1] = target: T1, human melanocortin 4 receptor (human, UniProt P32245 1-332); experiment: competition with 125-NDP-α-MSH, BHK human MC4R membranes
T1 construct: whole, on cells; cAMP assay on whole BHK cells; also called MC4R; human MC4 receptor
How it was run: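 Competition binding used membranes from BHK cells stably expressing human MC4R with ¹²⁵I-NDP-α-MSH (apx. […] final), compound at 1 μM–0.001 nM. Incubation was 2 h at 25 °C in HEPES pH 7.0 buffer with CaCl₂, MgSO₄, EGTA, Tween 20 and 0.1% HSA or ovalbumin. Filter-bound radioactivity was fitted by non-linear regression.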

[2] = target: T1, human melanocortin 4 receptor; experiment: cell-based or functional assay
[3] = target: human melanocortin 1 receptor (human, UniProt Q01726 1-317); experiment: cell-based or functional assay
human melanocortin 1 receptor, sequence (Q01726 whole entry): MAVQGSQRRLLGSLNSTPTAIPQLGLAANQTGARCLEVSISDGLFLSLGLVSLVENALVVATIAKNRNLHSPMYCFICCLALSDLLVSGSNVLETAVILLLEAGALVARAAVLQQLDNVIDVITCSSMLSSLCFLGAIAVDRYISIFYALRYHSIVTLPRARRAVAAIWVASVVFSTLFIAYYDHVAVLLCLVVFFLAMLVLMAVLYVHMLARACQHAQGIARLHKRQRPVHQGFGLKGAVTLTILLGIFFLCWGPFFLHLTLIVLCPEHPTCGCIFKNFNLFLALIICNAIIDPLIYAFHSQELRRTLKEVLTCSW

T1 sequence (P32245 whole entry): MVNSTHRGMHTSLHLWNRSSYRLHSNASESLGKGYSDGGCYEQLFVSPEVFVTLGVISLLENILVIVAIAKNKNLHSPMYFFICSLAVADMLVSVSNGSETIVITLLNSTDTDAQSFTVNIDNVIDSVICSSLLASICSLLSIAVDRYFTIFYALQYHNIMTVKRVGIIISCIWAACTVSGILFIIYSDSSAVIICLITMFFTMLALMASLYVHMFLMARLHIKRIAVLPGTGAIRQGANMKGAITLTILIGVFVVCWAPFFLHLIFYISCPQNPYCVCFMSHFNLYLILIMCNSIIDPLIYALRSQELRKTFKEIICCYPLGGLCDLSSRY

Binder	Ki [1] [nM]	MC4R cAMP EC50 [2] [nM]	MC1R cAMP EC50 [3] [nM]
B1	0.44	0.18	17.2
B2	0.06	0.02	0.22
B3	39.1	10.6	> 100
B4	23.3	2.52	> 100
B5	0.83	0.36	104
B6	0.15	0.04	4.97
B7	0.55	0.49	178
B8	0.42	0.26	7.29
B9	0.12	0.09	5.43
B10	30.2	3.55	> 10
B11	0.34	0.21	> 1
B12	13.6	3.26	> 10
B13	0.07	0.01	1.54
B14	0.38	0.12	4.22
B15	892	518	> 100
B16	0.04	0.02	0.34
B17	1.01	0.24	50.9
B18	1.49	0.13	> 1
